In patent publication US20040213794:

Tested on: myelin basic protein (MBP)

Mst1 (mammalian sterile 20-like kinase-1), full length 61 kD form, endogenous in neonatal rat cardiac myocytes
in gel kinase assay (MBP as substrate): activation of the full length (61 kD) and cleaved (34 kD) forms of Mst1 after 6 hr Doxo stimulation of cardiac myocytes

Mst1, cleaved 34 kD form (amino-terminal half containing the N-terminal kinase domain), in neonatal rat cardiac myocytes
in gel kinase assay (MBP as substrate): activation of the full length (61 kD) and cleaved (34 kD) forms of Mst1 after 6 hr Doxo stimulation of cardiac myocytes
